Results as given in paper PMC8643467, “Appearance of peanut agglutinin in the blood circulation after peanut ingestion promotes endothelial secretion of metastasis-promoting cytokines” (Carcinogenesis, 2021).

Target: MCAM (CD146), melanoma cell adhesion molecule (human (endogenous in HUVECs), UniProt P43121 24-646)
Assay: cell-based or functional assay

B1: Peanut agglutinin (PNA), agarose-conjugated (natural protein, Arachis hypogaea, UniProt P02872 24-273, looked up)
chain: AETVSFNFNSFSEGNPAINFQGDVTVLSNGNIQLTNLNKVNSVGRVLYAMPVRIWSSATGNVASFLTSFSFEMKDIKDYDPADGIIFFIAPEDTQIPAGSIGGGTLGVSDTKGAGHFVGVEFDTYSNSEYNDPPTDHVGIDVNSVDSVKTVPWNSVSGAVVKVTVIYDSSTKTLSVAVTNDNGDITTIAQVVDLKAKLPERVKFGFSASGSLGGRQIHLIRSWSFTSTLITTTRRSIDNNEKKIMNMASA
IL-6 secretion from HUVECs by ELISA, dose series of PNA, highest after 24 h with 8 μg/ml PNA: 3 fold
MCP-1 secretion from HUVECs by ELISA, dose series of PNA, highest after 24 h with 8 μg/ml PNA: 13 fold
